Substrate in this data set: Nc1ncnc2c1ncn2[C@@H]1O[C@H](COP(=O)(O)OP(=O)(O)OP(=O)(O)O)[C@@H](O)[C@H]1O
Kind of data set: purified protein. Conditions: Mg2+. Type of data set: biochemical, Homo sapiens.

B1: human DNA topoisomerase IIα (Homo sapiens) (protein)
chain: MEVSPLQPVNENMQVNKIKKNEDAKKRLSVERIYQKKTQLEHILLRPDTYIGSVELVTQQMWVYDEDVGINYREVTFVPGLYKIFDEILVNAADNKQRDPKMSCIRVTIDPENNLISIWNNGKGIPVVEHKVEKMYVPALIFGQLLTSSNYDDDEKKVTGGRNGYGAKLCNIFSTKFTVETASREYKKMFKQTWMDNMGRAGEMELKPFNGEDYTCITFQPDLSKFKMQSLDKDIVALMVRRAYDIAGSTKDVKVFLNGNKLPVKGFRSYVDMYLKDKLDETGNSLKVIHEQVNHRWEVCLTMSEKGFQQISFVNSIATSKGGRHVDYVADQIVTKLVDVVKKKNKGGVAVKAHQVKNHMWIFVNALIENPTFDSQTKENMTLQPKSFGSTCQLSEKFIKAAIGCGIVESILNWVKFKAQVQLNKKCSAVKHNRIKGIPKLDDANDAGGRNSTECTLILTEGDSAKTLAVSGLGVVGRDKYGVFPLRGKILNVREASHKQIMENAEINNIIKIVGLQYKKNYEDEDSLKTLRYGKIMIMTDQDQDGSHIKGLLINFIHHNWPSLLRHRFLEEFITPIVKVSKNKQEMAFYSLPEFEEWKSSTPNHKKWKVKYYKGLGTSTSKEAKEYFADMKRHRIQFKYSGPEDDAAISLAFSKKQIDDRKEWLTNFMEDRRQRKLLGLPEDYLYGQTTTYLTYNDFINKELILFSNSDNERSIPSMVDGLKPGQRKVLFTCFKRNDKREVKVAQLAGSVAEMSSYHHGEMSLMMTIINLAQNFVGSNNLNLLQPIGQFGTRLHGGKDSASPRYIFTMLSSLARLLFPPKDDHTLKFLYDDNQRVEPEWYIPIIPMVLINGAEGIGTGWSCKIPNFDVREIVNNIRRLMDGEEPLPMLPSYKNFKGTIEELAPNQYVISGEVAILNSTTIEISELPVRTWTQTYKEQVLEPMLNGTEKTPPLITDYREYHTDTTVKFVVKMTEEKLAEAERVGLHKVFKLQTSLTCNSMVLFDHVGCLKKYDTVLDILRDFFELRLKYYGLRKEWLLGMLGAESAKLNNQARFILEKIDGKIIIENKPKKELIKVLIQRGYDSDPVKAWKEAQQKVPDEEENEESDNEKETEKSDSVTDSGPTFNYLLDMPLWYLTKEKKDELCRLRNEKEQELDTLKRKSPSDLWKEDLATFIEELEAVEAKEKQDEQVGLPGKGGKAKGKKTQMAEVLPSPRGQRVIPRITIEMKAEAEKKNKKKIKNENTEGSPQEDGVELEGLKQRLEKKQKREPGTKTKKQTTLAFKPIKKGKKRNPWSDSESDRSSDESNFDVPPRETEPRRAATKTKFTMDLDSDEDFSDFDEKTDDEDFVPSDASPPKTKTSPKLSNKELKPQKSVVSDLEADDVKGSVPLSSSPPATHFPDETEITNPVPKKNVTVKKTAAKSQSSTSTTGAKKRAAPKGTKRDPALNSGVSQKPDPAKTKNRRKRKPSTSDDSDSNFEKIVSKAVTSKKSKGESDDFHMDFDSAVAPRAKSVRAKKPIKYLEESDEDDLF
Take B1: the Km came to 220 ± 60 µM.

The term Km denotes the concentration of substrate that gives half-maximal velocity.

(Values after PMC6844113.)
